# Data published in article PMC12922802 (Cell, 2025).
# B1: SRSF5 (natural protein, human, UniProt Q13243 1-272, looked up)
# chain: MSGCRVFIGRLNPAAREKDVERFFKGYGRIRDIDLKRGFGFVEFEDPRDADDAVYELDGKELCSERVTIEHARARSRGGRGRGRYSDRFSSRRPRNDRRNAPPVRTENRLIVENLSSRVSWQDLKDFMRQAGEVTFADAHRPKLNEGVVEFASYGDLKNAIEKLSGKEINGRKIKLIEGSKRHSRSRSRSRSRTRSSSRSRSRSRSRSRKSYSRSRSRSRSRSRSKSRSVSRSPVPEKSQKRGSSSRSKSPASVDRQRSRSRSRSRSVDSGN
# B2: SRSF7 (natural protein, human, UniProt Q16629 1-238, looked up)
# chain: MSRYGRYGGETKVYVGNLGTGAGKGELERAFSYYGPLRTVWIARNPPGFAFVEFEDPRDAEDAVRGLDGKVICGSRVRVELSTGMPRRSRFDRPPARRPFDPNDRCYECGEKGHYAYDCHRYSRRRRSRSRSRSHSRSRGRRYSRSRSRSRGRRSRSASPRRSRSISLRRSRSASLRRSRSGSIKGSRYFQSPSRSRSRSRSISRPRSSRSKSRSPSPKRSRSPSGSPRRSASPERMD
# B3: SRSF3 (natural protein, human, UniProt P84103 1-164, looked up)
# chain: MHRDSCPLDCKVYVGNLGNNGNKTELERAFGYYGPLRSVWVARNPPGFAFVEFEDPRDAADAVRELDGRTLCGCRVRVELSNGEKRSRNRGPPPSWGRRPRDDYRRRSPPPRRRSPRRRSFSRSRSRSLSRDRRRERSLSRERNHKPSRSFSRSRSRSRSNERK
# What was measured:
# SRSF1ΔIDR2 = test: right-angle light scattering
# [1] = molecular target: the molecule itself; test: right-angle light scattering
# [2] = molecular target: the molecule itself
molecule,measurement,setting,value
SRSF1ΔIDR2 (domain or fragment),threshold concentration for microphase separation (cμ),SRSF1ΔIDR2,0.44 µM
B1,threshold concentration for microphase separation (cμ),[1],9.5 ± 0.71 µM
same,stoichiometry N,[2],~14 molecules per microphase
B2,threshold concentration for microphase separation (cμ),[1],1 ± 0.14 µM
same,stoichiometry N,[2],~8 molecules per microphase
B3,threshold concentration for microphase separation (cμ),[1],2 ± 0.14 µM
same,stoichiometry N,[2],~93 molecules per microphase
